Measured values as given in IntAct's records for PubMed 16339850.

B1: Zinc finger protein CONSTANS-LIKE 3 (Arabidopsis thaliana (Mouse-ear cress)), Q9SK53 (parent)
chain: MASSSRLCDSCKSTAATLFCRADAAFLCGDCDGKIHTANKLASRHERVWLCEVCEQAPAHVTCKADAAALCVTCDRDIHSANPLSRRHERVPITPFYDAVGPAKSASSSVNFVDEDGGDVTASWLLAKEGIEITNLFSDLDYPKIEVTSEENSSGNDGVVPVQNKLFLNEDYFNFDLSASKISQQGFNFINQTVSTRTIDVPLVPESGGVTAEMTNTETPAVQLSPAEREARVLRYREKRKNRKFEKTIRYASRKAYAEMRPRIKGRFAKRTDSRENDGGDVGVYGGFGVVPSF
partner: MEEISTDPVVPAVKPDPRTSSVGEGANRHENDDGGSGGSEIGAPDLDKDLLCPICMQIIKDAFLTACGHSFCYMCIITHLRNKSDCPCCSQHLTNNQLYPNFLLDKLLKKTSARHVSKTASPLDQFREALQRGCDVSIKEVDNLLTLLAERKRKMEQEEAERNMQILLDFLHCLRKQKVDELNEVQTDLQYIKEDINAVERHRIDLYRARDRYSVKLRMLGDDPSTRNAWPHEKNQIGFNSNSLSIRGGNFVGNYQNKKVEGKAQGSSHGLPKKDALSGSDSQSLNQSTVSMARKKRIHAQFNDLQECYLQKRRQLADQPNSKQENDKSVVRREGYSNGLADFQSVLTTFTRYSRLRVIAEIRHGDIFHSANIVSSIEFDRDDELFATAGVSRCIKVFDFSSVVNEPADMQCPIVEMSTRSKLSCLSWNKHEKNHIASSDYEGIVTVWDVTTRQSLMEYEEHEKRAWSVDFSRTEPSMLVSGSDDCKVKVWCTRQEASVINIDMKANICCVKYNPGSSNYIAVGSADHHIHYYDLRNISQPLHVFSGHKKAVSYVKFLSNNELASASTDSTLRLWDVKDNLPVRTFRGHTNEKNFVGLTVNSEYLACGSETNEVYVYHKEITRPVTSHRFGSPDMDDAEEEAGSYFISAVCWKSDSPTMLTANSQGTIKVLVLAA
B2: E3 ubiquitin-protein ligase COP1 (Arabidopsis thaliana (Mouse-ear cress)), P43254 (parent)
chain: B1 partner
partner: B1 chain

Variants of: B1
Conditions: with cop1_arath COP1, P43254

| effect of a mutation on the interaction | Variant |
| --- | --- |
| disrupting interaction | MASSSRLCDSCKSTAATLFCRADAAFLCGDCDGKIHTANKLASRHERVWLCEVCEQAPAHVTCKADAAALCVTCDRDIHSANPLSRRHERVPITPFYDAVGPAKSASSSVNFVDEDGGDVTASWLLAKEGIEITNLFSDLDYPKIEVTSEENSSGNDGVVPVQNKLFLNEDYFNFDLSASKISQQGFNFINQTVSTRTIDVPLVPESGGVTAEMTNTETPAVQLSPAEREARVLRYREKRKNRKFEKTIRYASRKAYAEMRPRIKGRFAKRTDSRENDGGDVGVYGGFGVAASF [V291A;P292A] |

Variants of: B2
Conditions: with col3_arath COL3, Q9SK53

| effect of a mutation on the interaction | Variant |
| --- | --- |
| disrupting interaction strength | G524E |
